The values that follow come from patent US20240383988A1 (ERASCA, published 2024).

One assay addresses EGFR fragment D1-D2 (Homo sapiens (Human), UniProt P00533 25-334, limits assumed). As to the kind of experiment: flow cytometry on transfected HEK293T cells, saturating IgG, signal normalized. A general note: Flow cytometry measures light scatter and fluorescence of single cells or particles in a stream.
The target in assay [1] is T1, human EGFR (human, UniProt P00533 25-645).
T1 construct: Recombinant EGFR as used in SPR, ELISA and BLI; The phage selections used the EGFR ectodomain; also called immobilized EGFR; EGFR ectodomain (ECD)
As to the kind of experiment: SPR with purified IgG on EGFR; column head 10^-4 (s-1).

Assay [2] deals with T1, human EGFR. As to the kind of experiment: SPR, IgG; optimized variant IgG ER-2a.
Assay [3] deals with T1, human EGFR. As to the kind of experiment: SPR with purified IgG on EGFR; column head 10^5 (s-1M-1).
Another assay addresses EGFR fragment D3-D4 (Homo sapiens (Human), UniProt P00533 334-645, limits assumed). As to the kind of experiment: flow cytometry on transfected HEK293T cells.
In another assay the target is T2, EGFR-D28 (Homo sapiens (Human), UniProt P00533 25-1210).
T2 construct: The deletion Cys240-Cys267 must be applied to the entry
As to the kind of experiment: flow cytometry on transfected cells.

The target in the next assay is T3, EGFRvIII (UniProt P00533 25-1210).
T3 construct: whole, on cells; The deletion must be applied to it
As to the kind of experiment: flow cytometry on transfected cells.

B1: IgG ER-3a (antibody, V domains shown)
VH: EVQLVESGGGLVQPGGSLRLSCAASGFDLYSYSMHWVRQAPGKGLEWVASVSPSSGSTYYADSVKGRFTISADTSKNTAYLQMNSLRAEDTAVYYCARHWHVYPSYYWGGFDYWGQGTLVTVSS
VL: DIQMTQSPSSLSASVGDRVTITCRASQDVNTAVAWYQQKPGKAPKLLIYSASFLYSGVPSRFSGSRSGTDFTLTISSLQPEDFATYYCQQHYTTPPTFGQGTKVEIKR
notes: IgG; also called Ab ER-3a
For the molecule B1, in the assay with EGFR fragment D1-D2, the binding result is given as “no binding”.

B2: IgG ER-2a (antibody, V domains shown)
VH: EVQLVESGGGLVQPGGSLRLSCAASGFDVYYAAMHWVRQAPGKGLEWVASISPYYGYTSYADSVKGRFTISADTSKNTAYLQMNSLRAEDTAVYYCARYYHFSWHWSSFGGSYYPGMDYWGQGTLVTVSS
VL: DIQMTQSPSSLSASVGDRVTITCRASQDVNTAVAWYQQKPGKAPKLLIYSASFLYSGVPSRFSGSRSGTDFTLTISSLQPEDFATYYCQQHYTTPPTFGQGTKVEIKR
notes: IgG; also called Ab ER-2a
Regarding B2, in the assay with human EGFR [1], the koff worked out at 6.1e-05 s⁻¹. Further, in the assay with human EGFR [2], the Kd was found to be 0.28 nM. This molecule also displayed a kon with human EGFR [3] of 220000 M⁻¹ s⁻¹. For the same molecule, the binding result with EGFR fragment D3-D4, with EGFR-D28 and with EGFRvIII was “no binding (tested: saturating IgG concentrations)” throughout.

As usually defined, the koff is a measure of how fast the partners let go of each other. A word on the Kd: it is a measure of binding affinity in units of concentration. Usually kon stands for the rate constant with which the complex forms. Lower therefore signals slower complex formation.
